These results are taken from patent US20130310317A1 (Bristol-Myers Squibb, published 2013).

For orientation: Kd means the constant that tells how readily two partners part at equilibrium. Low values mean tighter binding, high ones weaker binding. One may read the koff as the rate constant with which the complex falls apart. One may read the kon as a measure of how fast the partners come together. High values mean faster complex formation, low ones slower complex formation. In general, EC50 (read off the curve) refers to the midpoint of the concentration-response curve.

For assay [1], the target named is T1, recombinant human IGF-IR (human, UniProt P08069 31-932).
T1 construct: Bought (R&D Systems); also called insulin-like growth factor-I receptor; IGF-1R
The experiment in a line: competitive ELISA: plate coated with 30 nM IGF-IR, clone bound first, then 10 nM biotinylated IGF-I as the blocked ligand, streptavidin-HRP/TMB, OD450. The protocol:
MaxiSorp™ plates (Nunc International, Rochester, N.Y.) were coated with 30 nM IGF-IR in PBS at 4° C. overnight followed by blocking in OptEIA buffer (BD biosciences, San Diego, Calif.) for 3 hours at room temperature. Purified fibronectin-based scaffold proteins in OptEIA buffer were bound to each well for 1 hour at room temperature at concentrations ranging from 50 pM to 1 μM. […] The excess ligand was removed by washing with PBST and bound ligand was detected with streptavidin-HRP (Pierce, Rockford, Ill.) using TMB detection reagents (BD biosciences) according to the manufacturer's instructions
In general terms: An ELISA detects its analyte on a solid surface through an enzyme-linked reagent.

In assay [2] the target is T2, recombinant human insulin receptor (human, UniProt P06213-2 28-944, limits assumed).
T2 construct: Amine-coupled to a CM5 chip (8300 RU); also called IR
The experiment in a line: SPR (BIAcore); IR amine-coupled to chip, clone at 10 µM, signal as % of insulin signal. The protocol: One liter E. coli growths of selected optimized clones were prepared and the proteins were purified.
(§1) In brief, 60 ug/mL of IR diluted in acetate 4.5 was coupled/immobilized to a level of 8300 RU and 11.9 ug/mL of VEGF-R2-Fc diluted in acetate 5.0 was immobilized to a level of 9700 RU on flow cells 2 and 3. A blank reference surface was prepared on FC 1. […] Fibronectin-based scaffold proteins were diluted to 10 uM in HBS-EP (10 mM Hepes 150 mM NaCl 3 mM EDTA 0.05% Surfactant P20) and injected at 20 uL/min for 3 minutes over the flow cells at 25 C and dissociation was observed over 10 mins.
On the technique in general: Surface plasmon resonance follows binding to a sensor surface in real time, without labels.

Assay [3] concerns the target T3, IGF-IR-Fc (human, UniProt P08069 31-932).
T3 construct: range 1-932; Made in house by transient transfection, captured on Protein A on CM5 chips for kinetic analysis; also called human IGF-IR-Fc fusion protein; recombinant, immobilized IGF-IR (BIAcore); not shown: hinge and constant regions of human IgG1
The experiment in a line: SPR (BIAcore); IGF-IR-Fc captured on Protein A, clone in solution. The protocol:
One liter E. coli growths of selected optimized clones were prepared and the proteins were purified. Surface plasmon resonance (BIAcore) analysis was performed using recombinant, immobilized IGF-IR and solution-phase clones in order to determine binding kinetics and binding affinities.
(§2) The binding kinetics of fibronectin-based scaffold proteins binding proteins to the target was measured using BIAcore 2000 or 3000 biosensors (Pharmacia Biosensor). A capture assay was developed utilizing an IGF-IR-Fc fusion. A similar reagent had been described by Forbes et al. (Forbes et al. 2002, European J. Biochemistry, 269, 961-968). The extracellular domain of human IGF-IR (aa 1-932) was cloned into a mammalian expression vector containing the hinge and constant regions of human IgG1. Transient transfection of the plasmid produced a fusion protein, IGF-IR-Fc which was subsequently purified by Protein A chromatography and captured on Protein A immobilized on Biasensor CM5 chips by amine coupling. The kinetic analysis involved the capture of IGF-IR-Fc on Protein A followed by injection of the fibronectin-based scaffold protein in solution and regeneration of the Protein A surface by glycine pH 2.0. Sensorgrams were obtained at each concentration and were evaluated using a program Biaevaluation, BIA Evaluation 2.0 (BIAcore), to determine the rate constants kₐ (kₒₙ) and kd (koff) The dissociation constant, KD was calculated from the ratio of rate constants koff/kₒₙ. Typically, a concentration series (2 uM to 0 uM) of purified fibronectin-based scaffold protein was evaluated for binding to protein A captured human IGF-IR-Fc fusion protein.

Assay [4] addresses T1, recombinant human IGF-IR. The experiment in a line: direct binding ELISA on coated IGF-IR.
Assay [5] has as its target T3, IGF-IR-Fc. The experiment in a line: SPR (BIAcore); IGF-IR-Fc captured on Protein A, clone in solution. As for the experimental part: BIAcore analysis was performed using recombinant, immobilized IGF-IR and solution-phase clones in order to determine binding kinetics and binding affinities.
as §2
This is another data set of the same source.

Assay [6] has as its target T1, recombinant human IGF-IR. The experiment in a line: direct binding ELISA: plate coated with 10 nM IGF-IR, His-tagged clone detected with His-HRP probe, TMB, OD450. As for the experimental part:
MaxiSorp™ plates (Nunc International, Rochester, N.Y.) were coated with 10 nM IGF-IR in PBS at 4° C. overnight followed by blocking in PBS-casein buffer (Pierce) for 3 hours at room temperature. Purified fibronectin-based scaffold proteins in casein buffer were bound to each well for 1 hour at room temperature at a concentration of 5 nM. The plate was washed with PBST and 100 μl of a 1:4000 dilution of His-HRP probe (Pierce) was added to each well with incubation for 15 min at room temperature. The wells were washed 5 times with PBST and the bound HRP was detected with TMB detection reagents (BD biosciences) according to the manufacturer's instructions.

For assay [7], the target named is T2, recombinant human insulin receptor. The assay is described as follows: SPR (BIAcore), IR amine-coupled to chip. The protocol:
as §1

Positions count from the first letter of the chain named. Read-outs that look alike come from different tables or passages of the source.

B1: 339A01 (designed binder)
chain: VSDVPRDLEVVAATPTSLLISWSTALKVQRYYRITYGETGGNSPVQEFTVPKHSHTATISGLKPGVDYTITVYAVTKMRDYRPISINYRTHHHHHH
notes: Optimized derivative of 218C04
Take B1: the “IC50 (read off the curve)” value with recombinant human IGF-IR [1] is around 1 nM. In addition, the “% IR Binding at 10 µM” value in assay [2] was above 100%. In the assay with IGF-IR-Fc [3], this molecule had a dissociation constant Kd of 0.565 nM, a koff of 0.00067 s⁻¹ and an on-rate (kon) of 1.2e+06 M⁻¹ s⁻¹.

B2: 385E01 (designed binder)
chain: B1 chain with T24A, A25R, Q29A, H53N, S54V, H55Y, K77A, M78V
notes: FG loop optimized derivative of 338A06
Regarding B2, in the assay with recombinant human IGF-IR [4], the binding result is on record as “binds”.

B3: 387C02 (designed binder)
chain: B1 chain with T24A, A25R, Q29A, H53N, S54V, H55Y, K77G, M78V, D80N, R82G
notes: as for B2
B3: in the assay with recombinant human IGF-IR [4], the binding result is recorded as “binds”.

B4: 387A09 (designed binder)
chain: B1 chain with T24A, A25R, Q29A, H53N, S54V, H55Y, K77M, M78S, R82G
notes: as for B2
For B4, in the assay with recombinant human IGF-IR [4], the binding result is “binds”.

B5: 386F10 (designed binder)
chain: B1 chain with T24A, A25R, Q29A, H53N, S54V, H55Y, K77L, M78L, R82G
notes: as for B2
In the assay with IGF-IR-Fc [5], B5 yielded an equilibrium dissociation constant (Kd) of 0.123 nM, a koff of 0.00023 s⁻¹ and an association rate constant (kon) of 1.9e+06 M⁻¹ s⁻¹.

B6: 385F08 (designed binder)
chain: B1 chain with T24A, A25R, Q29A, H53N, S54V, H55Y, K77S, M78L, R82A
notes: as for B2
With B6, in the assay with recombinant human IGF-IR [6], the “EC50 (read off the curve)” value is around 0.9 nM.

B7: 354G09 (designed binder)
chain: B1 chain with S23P, T24Q, A25H, K27R, K52R, H53G, H55D
notes: as for B1
Take B7: in the assay with recombinant human IGF-IR [1], the binding result was “binds”.

B8: 354F11 (designed binder)
chain: B1 chain with S23G, T24K, A25H, K27V, K52R, H53G, S54H, H55Y
notes: as for B1
B8: the binding result with recombinant human IGF-IR [1] is given as “binds”.

B9: 386A05 (designed binder)
chain: B1 chain with T24A, A25R, Q29A, H53N, S54V, H55Y, K77E, M78R
notes: as for B2
For the molecule B9, the binding result in the assay with recombinant human IGF-IR [4] is listed as “binds”.

B10: 385E04 (designed binder)
chain: B1 chain with T24A, A25R, Q29A, H53N, S54V, H55Y, K77E, M78L, D80N, R82G
notes: as for B2
Take B10: in the assay with recombinant human IGF-IR [4], the binding result is listed as “binds”.

B11: 386A07 (designed binder)
chain: B1 chain with T24A, A25R, Q29A, H53N, S54V, H55Y, K77L, M78V, D80N, R82G
notes: as for B2
With B11, the binding result with recombinant human IGF-IR [4] was “binds”.

B12: 385A09 (designed binder)
chain: B1 chain with T24A, A25R, Q29A, H53N, S54V, H55Y, K77R, M78I, R82G
notes: as for B2
B12: the binding result in the assay with recombinant human IGF-IR [6] is “binds”.

B13: 385D05 (designed binder)
chain: B1 chain with T24A, A25R, Q29A, H53N, S54V, H55Y, K77R, M78E
notes: as for B2
Take B13: the binding result with recombinant human IGF-IR [4] is “binds”.

B14: 386F11 (designed binder)
chain: B1 chain with T24A, A25R, Q29A, H53N, S54V, H55Y, K77L, M78T, R82K
notes: as for B2
As to B14, in the assay with recombinant human IGF-IR [6], the binding result is recorded as “binds”.

B15: 387A03 (designed binder)
chain: B1 chain with T24A, A25R, Q29A, H53N, S54V, H55Y, K77S, M78Y, R82W
notes: as for B2
B15: in the assay with recombinant human IGF-IR [6], the binding result is on record as “binds”.

B16: 385H06 (designed binder)
chain: B1 chain with T24A, A25R, Q29A, H53N, S54V, H55Y, K77Q, M78L, R82S
notes: as for B2
On to B16, for which, in the assay with recombinant human IGF-IR [6], the binding result is given as “binds”.

B17: 386A03 (designed binder)
chain: B1 chain with T24A, A25R, Q29A, H53N, S54V, H55Y, K77N, M78L, R82G
notes: as for B2
Take B17: in the assay with IGF-IR-Fc [5], the Kd was found to be 0.088 nM, the koff came out at 0.00046 s⁻¹ and the on-rate (kon) amounted to 5.2e+06 M⁻¹ s⁻¹.

B18: 386H05 (designed binder)
chain: B1 chain with T24A, A25R, Q29A, H53N, S54V, H55Y, K77V, M78V
notes: as for B2
On to B18, for which, in the assay with recombinant human IGF-IR [6], the binding result is reported as “binds”.

B19: 387B01 (designed binder)
chain: B1 chain with T24A, A25R, Q29A, H53N, S54V, H55Y, K77S, M78L, R82G
notes: as for B2
As for B19, in assay [7], the binding result is on record as “no binding (tested: 10 µM)”. Besides, in the assay with recombinant human IGF-IR [6], the “EC50 (read off the curve)” value is around 1 nM. In the assay with IGF-IR-Fc [5], this molecule yielded a Kd of 0.067 nM, a koff of 0.00044 s⁻¹ and a kon of 6.5e+06 M⁻¹ s⁻¹.

B20: 386F01 (designed binder)
chain: B1 chain with T24A, A25R, Q29A, H53N, S54V, H55Y, K77T, M78I
notes: as for B2
Turning to B20, in the assay with recombinant human IGF-IR [6], the binding result is reported as “binds”.

B21: 385B04 (designed binder)
chain: B1 chain with T24A, A25R, Q29A, H53N, S54V, H55Y, K77A, M78Y, R82Q
notes: as for B2
With B21, the binding result with recombinant human IGF-IR [6] was “binds”.

B22: 354A10 (designed binder)
chain: VSDVPRDLEVVAATPTSLLISWSNRLVVKRYYRITYGETGGNSPVQEFTVPHQMKTATISGLKPGVDYTITVYAVTPGGYSGRNYGPISINYRTHHHHHH
notes: as for B1
B22: the “% IR Binding at 10 µM” value in assay [2] turned out to be 1%. Further, in the assay with IGF-IR-Fc [3], binding was put at a Kd of 0.158 nM, the koff amounted to 0.00018 s⁻¹ and the kon turned out to be 1.1e+06 M⁻¹ s⁻¹.

B23: 354F06 (designed binder)
chain: VSDVPRDLEVVAATPTSLLISWTTNLQVSRYYRITYGETGGNSPVQEFTVPKANTTATISGLKPGVDYTITVYAVTVSKGNRSYGPISINYRTHHHHHH
notes: as for B1
Regarding B23, the binding result with recombinant human IGF-IR [1] is on record as “binds”.

B24: 338A05 (designed binder)
chain: VSDVPRDLEVVAATPTSLLISWSDSLKVSRYYRITYGETGGNSPVQEFTVPKQYHTATISGLKPGVDYTITVYAVTPSNIIGRHYGPISINYRTHHHHHH
notes: as for B1
B24: in assay [2], the “% IR Binding at 10 µM” value came out at 45%. In the assay with IGF-IR-Fc [3], this molecule gave a Kd of 0.261 nM, a koff of 0.00033 s⁻¹ and a kon of 1.3e+06 M⁻¹ s⁻¹.

B25: 354G02 (designed binder)
chain: B24 chain with S23A, D24E, S25H, K27Q, K52R, Q53G, Y54V, H55Y
notes: as for B1
For B25, the binding result with recombinant human IGF-IR [1] is on record as “binds”.

B26: 353F10 (designed binder)
chain: VSDVPRDLEVVAATPTSLLISWPTHYKVARYYRITYGETGGNSPVQEFTVPKHTYTATISGLKPGVDYTITVYAVTTTKGLRHYGPISINYRTHHHHHH
notes: as for B1
As for B26, the “IC50 (read off the curve)” value with recombinant human IGF-IR [1] was around 1 nM. The “% IR Binding at 10 µM” value in assay [2] was 1%. For the same molecule, in the assay with IGF-IR-Fc [3], binding was characterised by a dissociation constant (Kd) of 0.056 nM, the koff is 0.00021 s⁻¹ and the kon came out at 3.7e+06 M⁻¹ s⁻¹.
